# Source: paper PMC4148139 (Biochemistry, 2014)
# T1: FADD DD (death domain of Fas-associated protein with death domain, residues 93-184), His-tagged (UniProt Q13158 93-184)
# T1 sequence (looked up): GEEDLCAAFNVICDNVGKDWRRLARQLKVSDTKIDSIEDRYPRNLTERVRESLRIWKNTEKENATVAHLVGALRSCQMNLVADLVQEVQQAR
# Target: T1, FADD DD (death domain of Fas-associated …)
# Assay: SEC-MALS
row,Binder,stoichiometry N
1,"RIP1 DD (death domain of receptor interaction protein kinase 1, residues 583-664), His-tagged (domain or fragment, UniProt Q13546 583-664, looked up) TDKHLDPIRENLGKHWKNCARKLGFTQSQIDEIDHDYERDGLKEKVYQMLQKWVMREGIKGATVGKLAQALHQCSRIDLLSS",~1 RIP1 DD per FADD DD (5:5)
2,"GST-tagged RIP1 DD (domain or fragment, UniProt Q13546 583-664, looked up) TDKHLDPIRENLGKHWKNCARKLGFTQSQIDEIDHDYERDGLKEKVYQMLQKWVMREGIKGATVGKLAQALHQCSRIDLLSS",1 GST-RIP1 DD per FADD DD (5:5)
